Assay results from article PMC6879610.

What was measured:
[1] = molecular target: Env Du156.12 (HIV-1 (Du156.12))
[2] = molecular target: Env HxB2 (HIV-1 (HxB2)) (UniProt P04578)

Substance | neutralisation of Du156.12 (TZM-bl), fold decrease against PGZL1 [1] [fold] | neutralisation of HxB2 (TZM-bl), fold decrease against PGZL1 [2] [fold]
PGZL1 F100A IgG (antibody) | > 10 | > 10
PGZL1 W99A IgG (antibody) | > 10 | > 10
